Measured values as given in article PMC4810246.

Experiments:
[1] = biological target: porcine aminopeptidase N (pAPN) ectodomain with a C-terminal His6 tag (UniProt P15145); experiment: ELISA; details: read off a plot
[2] = biological target: the three mutant proteins; experiment: ELISA; plates coated overnight at 4 °C with IgG4 Fc-tagged S1 fragments or mutants (60 μg/mL or 120 to 1.875 μg/mL), blocked with BSA, incubated with His6-tagged pAPN (50 μg/mL) 2 h at RT; anti-His detection
[3] = S protein 1.875 μg/mL, parent: est. 0.25
[4] = S protein 3.75 μg/mL, parent: est. 0.42
[5] = S protein 7.5 μg/mL, parent: est. 0.70
[6] = S protein 15 μg/mL, parent: est. 1.2
[7] = S protein 30 μg/mL, parent: est. 1.7
[8] = S protein 60 μg/mL, parent: est. 2.0
[9] = S proteins coated at 60 μg/mL, pAPN in solution, parent: est. 1.9

Molecule	response [1, 3]	response [1, 4]	response [1, 5]	response [1, 6]	response [1, 7]	response [1, 8]	response [1, 9]	percent reduction of receptor-binding activity against wild-type S477–629 [2]
PEDV CHGD-01 S1 C-terminus fragment S477-629 with a C-terminal IgG4 Fc tag residues 556-563 replaced by HCoV-NL63 residues 534-541 (RBM2-1)	0.15 Abs (630 nm)	0.32 Abs (630 nm)	0.7 Abs (630 nm)	0.88 Abs (630 nm)	0.93 Abs (630 nm)	1.1 Abs (630 nm)	1.2 Abs (630 nm)	–
PEDV CHGD-01 S1 C-terminus fragment S477-629 with a C-terminal IgG4 Fc tag residues 607-615 replaced by SGSGS (RBM3-2)	0.05 Abs (630 nm)	0.06 Abs (630 nm)	0.13 Abs (630 nm)	0.34 Abs (630 nm)	0.8 Abs (630 nm)	1.2 Abs (630 nm)	1.4 Abs (630 nm)	–
PEDV CHGD-01 S1 C-terminus fragment S477-629 with a C-terminal IgG4 Fc tag residues 521-534 replaced by HCoV-NL63 residues 493-506 (RBM1-1)	0.13 Abs (630 nm)	0.25 Abs (630 nm)	0.6 Abs (630 nm)	0.98 Abs (630 nm)	1 Abs (630 nm)	1.1 Abs (630 nm)	1.2 Abs (630 nm)	–
porcine aminopeptidase N (pAPN) ectodomain with a C-terminal His6 tag (receptor) QSKPWNRYRLPTTLLPDSYNVTLRPYLTPNADGLYIFKGKSIVRLLCQEPTDVIIIHSKKLNYTTQGHMVVLRGVGDSQVPEIDRTELVELTEYLVVHLKGSLQPGHMYEMESEFQGELADDLAGFYRSEYMEGNVKKVLATTQMQSTDARKSFPCFDEPAMKATFNITLIHPNNLTALSNMPPKGSSTPLAEDPNWSVTEFETTPVMSTYLLAYIVSEFQSVNETAQNGVLIRIWARPNAIAEGHGMYALNVTGPILNFFANHYNTSYPLPKSDQIALPDFNAGAMENWGLVTYRENALLFDPQSSSISNKERVVTVIAHELAHQWFGNLVTLAWWNDLWLNEGFASYVEYLGADHAEPTWNLKDLIVPGDVYRVMAVDALASSHPLTTPAEEVNTPAQISEMFDSISYSKGASVIRMLSNFLTEDLFKEGLASYLHAFAYQNTTYLDLWEHLQKAVDAQTSIRLPDTVRAIMDRWTLQMGFPVITVDTKTGNISQKHFLLDSESNVTRSSAFDYLWIVPISSIKNGVMQDHYWLRDVSQAQNDLFKTASDDWVLLNVNVTGYFQVNYDEDNWRMIQHQLQTNLSVIPVINRAQVIYDSFNLATAHMVPVTLALDNTLFLNGEKEYMPWQAALSSLSYFSLMFDRSEVYGPMKKYLRKQVEPLFQHFETLTKNWTERPENLMDQYSEINAISTACSNGLPQCENLAKTLFDQWMSDPENNPIHPNLRSTIYCNAIAQGGQDQWDFAWGQLQQAQLVNEADKLRSALACSNEVWLLNRYLGYTLNPDLIRKQDATSTINSIASNVIGQPLAWDFVQSNWKKLFQDYGGGSFSFSNLIQGVTRRFSSEFELQQLEQFKKNNMDVGFGSGTRALEQALEKTKANIKWVKENKEVVLNWFIEHS	–	–	–	–	–	–	–	30 to 40%
